Experimental data from patent US20160139137.

What was measured:
[1] = system: T1, In-active peptide (NH2-Cys-Lys-Pro-Val-Lys-TAMRA, SEC ID NO: 3)
T1 sequence: CKPVK

[2] = system: T2, Pro-active peptide (NH2-Cys-Lys-Arg-Val-Lys-TAMRA, SEQ ID NO: 2)
T2 sequence: CKRVK

Trypsin (13.000-20.000 units/mg)
fluorescence emission spectra of the one-colour QD540@SiO2 system after incubation with trypsin [1]: the control sample with the “in-active” QD540@SiO2 system, as expected, did not show any significant change in the fluorescence emission | fluorescence emission of QD660@SiO2@QD540@SiO2 nanoparticles at 25 µg/L versus 350 µg/L trypsin [2]: Increasing the enzyme concentration led to faster recovery of the original emission at 540 nm | fluorescence emission spectra of the one-colour QD540@SiO2 system after incubation with trypsin (loss of FRET on peptide cleavage) [2]: The spectroscopic profiles further demonstrated the existence of FRET processes between the QD540@SiO2 nanospheres and the “pro-active” TAMRA-labelled peptide | ratio of PL emission peaks I540/I660 during enzymatic digestion for 120 minutes at 25-350 µg/L trypsin [2]: There was a direct relationship between the enzymatic digestion rate and the enzyme concentration
